Measurements: patent publication US20220125892A1

Target: mannose-6-phosphate receptor on human neuroblastoma cells (SH-SY5Y) (human)
Assay: cell-based or functional assay

OxyGCase (uncapped and demannosylated recombinant human glucocerebrosidase variant produced in Yarrowia lipolytica) (enzyme)
KUPTAKE, net M6PR mediated uptake by SH-SY5Y human neuroblastoma cells (4MUbetaGlc activity in lysates, hyperbolic fit): 1.9 nM
